± gives the uncertainty stated by the source.
B1: Tumor protein p73, residues 487 to 549; numbered along this chain, O15350 (parent)
chain: YHADPSLVSFLTGLGCPNCIEYFTSQGLQSIYHLQNLTIEDLGALKIPEQYRMTIWRGLQDLK

Variants of: B1
Assay: abundance fitness (aPCA) (normalised: wild type 0, dead -1); higher = more abundant; growth selection in yeast, the domain comes from the species named
Details: Homo sapiens

P17R and Y22N are within error of each other in abundance fitness: -0.024 ± 0.03 for the first, 0.002 ± 0.12 for the second.

Y22D and Y22G are within error of each other in abundance fitness: -0.101 ± 0.063 for the first, -0.173 ± 0.034 for the second.

Y22L and Y22T are within error of each other in abundance fitness: 0.009 ± 0.03 for the first, -0.04 ± 0.041 for the second.

Going from Y22K to A3G, the abundance fitness rises from -0.047 ± 0.042 to 0.141 ± 0.038.

A3N and K46C are within error of each other in abundance fitness: 0.024 ± 0.16 for the first, -0.08 ± 0.055 for the second.

Compared with K46W, K46T is higher in abundance fitness: -0.249 ± 0.037 for the first, -0.102 ± 0.048 for the second.

Q35E and Q35D are within error of each other in abundance fitness: 0.005 ± 0.066 for the first, 0.073 ± 0.08 for the second.

Going from Q35T to Q35H, the abundance fitness rises from -0.084 ± 0.042 to 0.026 ± 0.055.

First: Q35F
Second: S30V
The abundance fitness of the first is higher: -0.142 ± 0.085 for the first, -0.521 ± 0.05 for the second.

Compared with S30T, S30P is lower in abundance fitness: 0.085 ± 0.073 for the first, -0.629 ± 0.094 for the second.

Going from S30C to S30W, the abundance fitness falls from -0.062 ± 0.04 to -0.817 ± 0.085.

First: S30N
Second: S30I
The abundance fitness of the first is higher: 0.025 ± 0.055 for the first, -1.01 ± 0.27 for the second.

First: L11P
Second: L11I
The abundance fitness of the first is lower: -1.17 ± 0.25 for the first, 0.039 ± 0.071 for the second.

L11S and L11T are within error of each other in abundance fitness: -1 ± 0.1 for the first, -0.858 ± 0.13 for the second.

First: L11K
Second: L11D
The abundance fitness of the first is higher: -0.681 ± 0.089 for the first, -1.14 ± 0.22 for the second.

Compared with L11A, N36R is higher in abundance fitness: -0.599 ± 0.07 for the first, 0.034 ± 0.031 for the second.

First: N36F
Second: N36M
The abundance fitness of the first is lower: -0.198 ± 0.072 for the first, -0.007 ± 0.054 for the second.

N36G and N36A are within error of each other in abundance fitness: 0.013 ± 0.035 for the first, -0.04 ± 0.04 for the second.

N36L and G15N are within error of each other in abundance fitness: -0.061 ± 0.034 for the first, -0.002 ± 0.053 for the second.

Compared with G15L, G15S is higher in abundance fitness: -0.616 ± 0.065 for the first, -0.17 ± 0.036 for the second.

First: G15W
Second: C19F
The abundance fitness of the first is lower: -0.854 ± 0.099 for the first, 0.031 ± 0.13 for the second.

Compared with C19V, C19P is lower in abundance fitness: 0.052 ± 0.036 for the first, -0.97 ± 0.12 for the second.

First: C19G
Second: C19A
The abundance fitness of the first is lower: -0.559 ± 0.049 for the first, -0.033 ± 0.042 for the second.

Compared with S6Y, S6A is higher in abundance fitness: -0.197 ± 0.16 for the first, 0.041 ± 0.052 for the second.

S6G and S6E are within error of each other in abundance fitness: 0.136 ± 0.027 for the first, 0.126 ± 0.048 for the second.

S6F and S6H are within error of each other in abundance fitness: -0.095 ± 0.072 for the first, -0.077 ± 0.089 for the second.

S6V and E40A are within error of each other in abundance fitness: -0.027 ± 0.043 for the first, 0.007 ± 0.048 for the second.

E40P and E40H are within error of each other in abundance fitness: -0.152 ± 0.074 for the first, -0.005 ± 0.11 for the second.

E40V and E40W are within error of each other in abundance fitness: -0.097 ± 0.049 for the first, -0.085 ± 0.044 for the second.

E40D and D41A are within error of each other in abundance fitness: -0.06 ± 0.071 for the first, -0.094 ± 0.038 for the second.

First: D41W
Second: D41N
The abundance fitness of the first is lower: -0.885 ± 0.11 for the first, -0.042 ± 0.057 for the second.

D41V and D41I are within error of each other in abundance fitness: -0.644 ± 0.056 for the first, -0.9 ± 0.26 for the second.

First: D41T
Second: D41Y
The abundance fitness of the first is higher: -0.159 ± 0.053 for the first, -0.45 ± 0.089 for the second.

First: D41H
Second: L37M
The abundance fitness of the first is lower: -0.198 ± 0.068 for the first, 0.032 ± 0.05 for the second.

Compared with L37Y, L37D is lower in abundance fitness: 0.071 ± 0.11 for the first, -0.737 ± 0.16 for the second.

Going from L37G to L37P, the abundance fitness falls from -0.536 ± 0.044 to -0.799 ± 0.12.

First: L37Q
Second: L37K
The abundance fitness of the first is lower: -0.41 ± 0.13 for the first, 0.001 ± 0.076 for the second.

Compared with L37R, D61T is higher in abundance fitness: -0.191 ± 0.034 for the first, -0.003 ± 0.035 for the second.

D61P and D61A are within error of each other in abundance fitness: -0.092 ± 0.051 for the first, -0.136 ± 0.039 for the second.

First: D61M
Second: I20F
The abundance fitness of the first is higher: -0.002 ± 0.053 for the first, -0.257 ± 0.052 for the second.

First: I20V
Second: I20C
The abundance fitness of the first is higher: 0.009 ± 0.029 for the first, -0.074 ± 0.038 for the second.

Compared with I20T, I20W is lower in abundance fitness: -0.003 ± 0.036 for the first, -0.36 ± 0.05 for the second.

I20A and I20E are within error of each other in abundance fitness: -0.061 ± 0.042 for the first, -0.057 ± 0.047 for the second.

E21V and E21H are within error of each other in abundance fitness: -0.018 ± 0.031 for the first, -0.089 ± 0.061 for the second.

E21T and E21I are within error of each other in abundance fitness: -0.054 ± 0.063 for the first, -0.138 ± 0.052 for the second.

E21W and K63N are within error of each other in abundance fitness: -0.087 ± 0.063 for the first, -0.245 ± 0.3 for the second.

K63G and K63Q are within error of each other in abundance fitness: -0.002 ± 0.075 for the first, 0.074 ± 0.28 for the second.

K63W and K63T are within error of each other in abundance fitness: -0.044 ± 0.25 for the first, 0.172 ± 0.14 for the second.

Going from T12C to T12R, the abundance fitness rises from -0.386 ± 0.065 to 0.058 ± 0.028.

T12S and T12Q are within error of each other in abundance fitness: -0.05 ± 0.042 for the first, 0.031 ± 0.045 for the second.

Compared with D4N, Y32I is higher in abundance fitness: -0.15 ± 0.092 for the first, 0.097 ± 0.089 for the second.

Y32E and Y32K are within error of each other in abundance fitness: 0.095 ± 0.053 for the first, 0.137 ± 0.1 for the second.

H2V and H2Y are within error of each other in abundance fitness: -0.004 ± 0.043 for the first, -0.031 ± 0.11 for the second.

First: H2W
Second: H2S
The abundance fitness of the first is lower: 0.119 ± 0.063 for the first, 0.274 ± 0.041 for the second.

First: H2I
Second: L14Q
The abundance fitness of the first is higher: 0.515 ± 0.097 for the first, -0.298 ± 0.077 for the second.

Compared with L14K, L14R is lower in abundance fitness: -0.174 ± 0.1 for the first, -0.353 ± 0.038 for the second.

M53H and M53S are within error of each other in abundance fitness: 0.108 ± 0.075 for the first, 0.008 ± 0.04 for the second.

First: M53L
Second: M53Y
The abundance fitness of the first is higher: 0.021 ± 0.032 for the first, -0.302 ± 0.16 for the second.

M53P and M53F are within error of each other in abundance fitness: -0.051 ± 0.053 for the first, -0.123 ± 0.063 for the second.

M53W and L62A are within error of each other in abundance fitness: -0.04 ± 0.042 for the first, -0.104 ± 0.045 for the second.

L62W and L62N are within error of each other in abundance fitness: 0.071 ± 0.039 for the first, 0.058 ± 0.088 for the second.

Going from F10M to F10W, the abundance fitness rises from -0.424 ± 0.053 to -0.296 ± 0.037.

First: F10K
Second: F10L
The abundance fitness of the first is lower: -1.32 ± 0.31 for the first, -0.307 ± 0.038 for the second.

F10Q and F10S are within error of each other in abundance fitness: -0.865 ± 0.21 for the first, -0.867 ± 0.083 for the second.

F10Y and P48H are within error of each other in abundance fitness: -0.294 ± 0.074 for the first, -0.389 ± 0.083 for the second.

Going from P48G to P48Y, the abundance fitness falls from -0.173 ± 0.036 to -1.13 ± 0.21.

Compared with P48C, P48I is higher in abundance fitness: -0.51 ± 0.071 for the first, -0.144 ± 0.18 for the second.

H33G and H33D are within error of each other in abundance fitness: -0.038 ± 0.033 for the first, -0.017 ± 0.1 for the second.

Going from H33T to H33Y, the abundance fitness falls from 0.01 ± 0.048 to -0.112 ± 0.058.

H33A and H33N are within error of each other in abundance fitness: -0.014 ± 0.035 for the first, -0.027 ± 0.086 for the second.

Going from Q29S to Q29R, the abundance fitness falls from 0.053 ± 0.033 to -0.063 ± 0.028.

Going from Q29E to Q29A, the abundance fitness falls from 0.05 ± 0.038 to -0.047 ± 0.037.

Q29K and Q29D are within error of each other in abundance fitness: 0.05 ± 0.035 for the first, 0.089 ± 0.089 for the second.

First: Q29T
Second: Q29W
The abundance fitness of the first is higher: 0.066 ± 0.04 for the first, -0.139 ± 0.035 for the second.

Compared with Q29I, T24N is lower in abundance fitness: 0.142 ± 0.06 for the first, -0.224 ± 0.13 for the second.

T24H and T24C are within error of each other in abundance fitness: -0.123 ± 0.12 for the first, -0.097 ± 0.081 for the second.

Compared with T24D, T24A is higher in abundance fitness: -0.198 ± 0.062 for the first, -0.02 ± 0.039 for the second.

L59H and L59K are within error of each other in abundance fitness: -0.801 ± 0.18 for the first, -0.561 ± 0.11 for the second.

L59Y and L59T are within error of each other in abundance fitness: -0.097 ± 0.12 for the first, -0.157 ± 0.05 for the second.

L59A and L59M are within error of each other in abundance fitness: -0.054 ± 0.054 for the first, -0.042 ± 0.078 for the second.

First: L59E
Second: L59N
The abundance fitness of the first is lower: -0.95 ± 0.16 for the first, -0.631 ± 0.13 for the second.

E49T and E49R are within error of each other in abundance fitness: -0.036 ± 0.041 for the first, 0.028 ± 0.039 for the second.

Compared with E49Q, E49D is higher in abundance fitness: -0.045 ± 0.064 for the first, 0.105 ± 0.063 for the second.

For E49K, the abundance fitness was -0.014 ± 0.05.

Source: the Human Domainome abundance scans (Beltran et al. 2025)
